The text below walks through data of patent US20220153832A1 (PIONYR IMMUNOTHERAPEUTICS, published 2022).

The target of experiment [1] is T1, Human Macrophage Receptor with Collagenous Structure (MARCO), full length, on cells (human, UniProt Q9UEW3 1-520).
T1 construct: the cell type is named under assay; also called huMARCO; HuMARCO
T1 sequence: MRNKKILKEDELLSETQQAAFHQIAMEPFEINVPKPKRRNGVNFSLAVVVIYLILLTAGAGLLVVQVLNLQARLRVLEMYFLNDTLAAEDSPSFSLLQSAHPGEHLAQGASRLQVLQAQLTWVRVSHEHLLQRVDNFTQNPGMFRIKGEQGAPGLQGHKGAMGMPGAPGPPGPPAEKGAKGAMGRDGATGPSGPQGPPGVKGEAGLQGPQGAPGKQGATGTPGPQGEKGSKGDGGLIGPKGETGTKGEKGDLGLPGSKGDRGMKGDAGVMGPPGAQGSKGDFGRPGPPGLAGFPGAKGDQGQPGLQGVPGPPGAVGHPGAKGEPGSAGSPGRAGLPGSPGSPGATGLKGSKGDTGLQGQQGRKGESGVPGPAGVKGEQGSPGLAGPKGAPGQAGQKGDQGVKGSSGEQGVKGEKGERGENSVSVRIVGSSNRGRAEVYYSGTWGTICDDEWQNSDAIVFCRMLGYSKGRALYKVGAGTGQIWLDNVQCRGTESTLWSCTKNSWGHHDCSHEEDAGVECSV
Briefly: flow cytometry, 293T HuMARCO cells. The gist of the method:
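Geometric mean fluorescence intensity from flow cytometry, analysed in FlowJo and Prism, served as the readout of binding to HEK293T cells carrying human or cynomolgus MARCO. Cells were stained with Zombie NIR for viability and plated at 100,000 cells/well. An 8-point three-fold antibody dilution from 100 nM in D-PBS/2% FBS/2 mM EDTA was applied for 1 hr on ice, followed by APC goat anti-mouse IgG for 30 min on ice, with acquisition on an Attune NxT.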

Experiment [2] deals with T1, Human Macrophage Receptor with …. In words: competition with AF488 E. coli binding to 293T cells expressing MARCO, flow cytometry. As for the experimental part:
Zombie NIR viability dye (BioLegend) was prepared by diluting the stock 1000-fold in D-PBS and added to the cells. The cells were incubated with the dye for 10 min at RT in the dark. The reaction was quenched by adding 1 m of 4× Staining buffer (2% FBS in DBPS containing Ca²⁺), followed by centrifugation at 400×g for 5 min at 4° C. Cells were then plated in V-shaped 96 well plates at a density of 100,000 cells. A488-fluorescently labeled bacteria (E. coli from Invitrogen) was added at 10 μg/ml with the anti-human or anti-mouse antibodies of interest for a 30 min incubation at 37 C. Plates were then washed twice followed by resuspension in 100 ul of staining buffer for acquisition on the flow cytometer (Attune NxT, Life Technologies). Flow cytometry data were analyzed using FlowJo software (version 10.6.1) and data were processed and further analyzed in Microsoft Excel and GraphPad Prism software (version 8).
The newly generated rat hybridoma anti-human MARCO antibodies were characterized as previously described. Neither antibody bound to MSR1. Binding kinetics were determined via Multi Cycle Kinetics analysis using the huMARCO antigen as previously described.
For orientation: Flow cytometry measures light scatter and fluorescence of single cells or particles in a stream.

Another experiment has as its target T2, human MSR1 (R&D Systems) (human, UniProt P21757 77-451, limits assumed).
T2 construct: Related scavenger receptor used as specificity control; also called MSRI
T2 sequence (looked up): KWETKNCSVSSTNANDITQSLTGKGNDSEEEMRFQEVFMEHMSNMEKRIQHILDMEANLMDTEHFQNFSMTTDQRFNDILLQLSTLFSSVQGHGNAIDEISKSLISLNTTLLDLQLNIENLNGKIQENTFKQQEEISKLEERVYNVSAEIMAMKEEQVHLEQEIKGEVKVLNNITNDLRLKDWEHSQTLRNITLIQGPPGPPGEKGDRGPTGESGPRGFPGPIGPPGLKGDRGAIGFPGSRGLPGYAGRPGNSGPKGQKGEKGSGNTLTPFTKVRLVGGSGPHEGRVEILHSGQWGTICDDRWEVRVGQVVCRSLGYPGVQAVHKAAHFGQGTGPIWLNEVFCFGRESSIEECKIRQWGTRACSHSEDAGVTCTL
In words: ELISA on MSR1. The gist of the method:
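Cross-reactivity with human MSR1 (R&D Systems) was tested by ELISA. Maxisorp plates were coated overnight with 0.1 ug/well protein in DPBS with Ca2+ and Mg2+, then blocked with PBS/Ca2+/2% FBS. Hybridoma supernatants were added 1:1 in that buffer for 1 hour at room temperature. Detection used HRP-conjugated anti-rat IgG for 1 hr, then TMB and A450.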
On the technique in general: In an ELISA, binding on a coated surface is turned into a signal by an enzyme label.

Experiment [3] concerns the target T3, N-terminally polyhistidine tagged human MARCO ECD (147-520), recombinant (human, UniProt Q9UEW3 147-520).
T3 construct: also called PI-RG-3000; recombinant human MARCO; not shown: N-terminal polyhistidine tag
T3 sequence: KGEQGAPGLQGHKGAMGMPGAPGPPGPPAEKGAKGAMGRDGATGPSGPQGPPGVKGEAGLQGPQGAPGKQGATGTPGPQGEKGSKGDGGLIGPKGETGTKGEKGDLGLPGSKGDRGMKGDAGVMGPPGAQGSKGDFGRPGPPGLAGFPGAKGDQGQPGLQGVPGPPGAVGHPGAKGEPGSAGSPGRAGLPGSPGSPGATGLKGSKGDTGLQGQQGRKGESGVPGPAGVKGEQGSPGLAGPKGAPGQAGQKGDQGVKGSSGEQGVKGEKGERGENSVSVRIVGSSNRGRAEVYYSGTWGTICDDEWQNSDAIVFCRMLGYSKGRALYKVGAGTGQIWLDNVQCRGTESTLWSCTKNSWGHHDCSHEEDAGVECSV
In words: ELISA on recombinant human MARCO, 50 mM EDTA. As for the experimental part:
After the plates were incubated at room temperature for 1 hour or 4° C. overnight, the plates were wash 3 times with ELISA wash buffer (PBS/0.05% TWEEN-20), then hybridoma supernatant (1:5 dilution) or purified antibody (1 ug) was diluted in DPBS/Ca2+/2% FBS, DPBS without Ca2+/2 mM EDTA/2% FBS, DPBS without Ca2+/10 mM EDTA/2% FBS, and DPBS without Ca2+/50 mM EDTA/2% FBS. Plates again were incubated at room temperature for 1 hour.

B1: PI-HX-3021 (antibody, V domains shown)
VH: QVRLVQSGTALVRPGASVRMSCTASGYSFTDYWVSWVKQSHGQSLEWIGEIYPNSGTTNFNEKFEGKATLTVDKSTSTAYMELSRLTSEDSAIYYCTGEGTFDYWGQGVMVTVSS
VL: EIVLTQSPTTMAASPGEKVTITCRPSSSLSNMHWFQQKSGTSPKPWIYDTSKLASGVPDRFSGSGSGTSYSLTISSMEAEDAATYYCLQRSSYPPTFGAGTKLELK
notes: Rat IgG2a hybridoma antibody; Not the effector dead PI-3021; also called PI-3007 (name of the recombinant form)
Take B1: the binding result in experiment [1] was “no binding”.

B2: PI-HX-3016 (antibody, rat IgG1, V domains shown)
VH: EVQLVESGGGLVKPGASLKLSCVASGFTFSDDWMNWVRQTPGKAMEWIGDIKYDGSYTNYVPSLKNRLTISRDNAKNTLYLQMTNVRSEDTATYYCTSGGVFDYWGQGVMVTVSS
VL: EIVLSQSPTTMAASPGEKVTITCRASSSVSYMHWFQQKSGTSPKPWIYDTSKLASGVPDRFSGSGSGTSYSLTISSMEAEDAATYYCLQRSGYPPTFGAGTKLEVK
notes: Rat IgG1 hybridoma antibody
B2: the binding result in experiment [1] is recorded as “no binding”.

B3: PI-HX-3031 (antibody)
heavy: QVQLKESGPGLVQPSQTLSLTCTVSGFSLTSYHVSWVRQPPGKGLEWMGAIWTGGSIAYNSLLKSRLSISRDTSKSQVFLKMNSLQTEDTATYYCARDLSDYYSSYTSFDYWGQGVMVTVSTAETTAPSVYPLAPGTALKSNSMVTLGCLVKGYFPEPVTVTWNSGALSSGVHTFPAVLQSGLYTLTSSVTVPSSTWSSQAVTCNVAHPASSTKVDKKIVPRECNPCGCTGSEVSSVFIFPPKTKDVLTITLTPKVTCVVVDISQNDPEVRFSWFIDDVEVHTAQTHAPEKQSNSTLRSVSELPIVHRDWLNGKTFKCKVNSGAFPAPIEKSISKPEGTPRGPQVYTMAPPKEEMTQSQVSITCMVKGFYPPDIYTEWKMNGQPQENYKNTPPTMDTDGSYFLYSKLNVKKETWQQGNTFTCSVLHEGLHNHHTEKSLSHSP
light: DIQMTQSPASLSTSLGETVSIECLASEGISNDLAWYQQKSGKSPQLLIYAASRLQDGVPSRFSGSGSGTRYSLKISGMQPEDEADYFCQQSYKYPLTFGSGTKLEIKRADAAPTVSIFPPSTEQLATGGASVVCLMNNFYPRDISVKWKIDGTERRDGVLDSVTDQDSKDSTYSMSSTLSLTKADYESHNLYTCEVVHKTSSSPVVKSFNRNEC
notes: Parental rat hybridoma, rat IgG2a
Take B3: in experiment [2], the EC50 was 0.18 nM. Moreover, the binding result in the experiment with human MSR1 (R&D Systems) is reported as “no binding”. Further, the “ELISA signal (A450)” value in experiment [3] is 0.0754.

B4: PI-HX-3043 (antibody, rat IgG2a)
heavy: QVNLLQSRAALVKPGASVKLSCKASGYTFTDYYLHWVKQSHAKSLEWIGYINPNNAYTSYNEKFKSKATLTVDKSTNTAYMELSRLTSADSATYYCARDTTDYYNLHFAYWGQGTLVTVSSAETTAPSVYPLAPGTALKSNSMVTLGCLVKGYFPEPVTVTWNSGALSSGVHTFPAVLQSGLYTLTSSVTVPSSTWSSQAVTCNVAHPASSTKVDKKIVPRECNPCGCTGSEVSSVFIFPPKTKDVLTITLTPKVTCVVVDISQNDPEVRFSWFIDDVEVHTAQTHAPEKQSNSTLRSVSELPIVHRDWLNGKTFKCKVNSGAFPAPIEKSISKPEGTPRGPQVYTMAPPKEEMTQSQVSITCMVKGFYPPDIYTEWKMNGQPQENYKNTPPTMDTDGSYFLYSKLNVKKETWQQGNTFTCSVLHEGLHNHHTEKSLSHSP
light: DIQMTQSPASLSASLGETVSIECLTSEGISNDLAWYQQKSGKSPQLLIYDASRLEDGVPSRFSGSGSGTRYSLKISGMQTEDEADYFCQQSYKYPLTFGSGTKLEIKRADAAPTVSIFPPSTEQLATGGASVVCLMNNFYPRDISVKWKIDGTERRDGVLDSVTDQDSKDSTYSMSSTLSLTKADYESHNLYTCEVVHKTSSSPVVKSFNRNEC
notes: as for B3
With B4, the “ELISA signal (A450)” value in experiment [3] was determined as 0.1.

B5: PI-HX-3061 (antibody, rat IgG2a)
heavy: EVQLVESGGGLVQPGSSLKLSCVASKFTFSNYGMNWIRQAPKKGLEWIALIYYNSNNKYYADSVKGRFTISRDNSKNTLYLEMNSLRSEDTAMYYCAKSLTGGSDYFDSWGQGVMVTVSSAETTAPSVYPLAPGTALKSNSMVTLGCLVKGYFPEPVTVTWNSGALSSGVHTFPAVLQSGLYTLTSSVTVPSSTWPSQTVTCNVAHPASSTKVDKKIVPRNCGGDCKPCICTGSEVSSVFIFPPKPKDVLTITLTPKVTCVVVDISQDDPEVHFSWFVDDVEVHTAQTRPPEEQFNSTFRSVSELPILHQDWLNGRTFRCKVTSAAFPSPIEKTISKPEGRTQVPHVYTMSPTKEEMTQNEVSITCMVKGFYPPDIYVEWQMNGQPQENYKNTPPTMDTDGSYFLYSKLNVKKEKWQQGNTFTCSVLHEGLHNHHTEKSLSHSP
light: DVQMTQSPSYLAASPGESVSISCKASKSIGTFLAWYQEKPEKTNKLLIYSGSTLQSGTPSRFSGSGSGTDFTLTIRNLEPEDFAVYYCQQHDEYPFTFGSGTKLEIKRADAAPTVSIFPPSTEQLATGGASVVCLMNNFYPRDISVKWKIDGTERRDGVLDSVTDQDSKDSTYSMSSTLSLTKADYESHNLYTCEVVHKTSSSPVVKSFNRNEC
notes: Parental rat hybridoma, rat IgG2a; cross reactive with human and mouse MARCO
In experiment [2], B5 returned an EC50 of 0.52 nM. Moreover, the binding result with human MSR1 (R&D Systems) was “no binding”.

Usually EC50 stands for the concentration giving half of the maximal effect. A high value points to a need for much substance.
